What was measured:
[1] = target: T1, human RAGE-Fc fusion protein (human, UniProt Q15109 23-344); experiment: ligand competition ELISA, panel Blocks hRAGE-Fc interaction with S100-B; blocked ligand S100-B
T1 construct: also called hRAGE-Fc; huRAGE-Fc; not shown: Fc domain of human IgG

[2] = target: T2, human RAGE V-region-Fc fusion protein (human, UniProt Q15109 23-118); experiment: direct binding ELISA, coated hRAGE V-region-Fc
T2 construct: also called hRAGE V-domain-Fc; hRAGE-V-Fc (CM); not shown: Fc domain of human IgG
Procedure: Antibodies were purified from hybridoma supernatants using standard procedures. Purified antibodies were evaluated for binding to soluble forms of RAGE with the use of ELISA. […] After washing and blocking with PBS containing 1% BSA and 0.05% Tween-20, 100 ul of sample (samples were in several forms: diluted immune serum, hybridoma supernatants, or purified antibodies, as indicated) was added and incubated for 1 hour at room temperature. The plates were washed with PBS, pH 7.2 and bound anti-RAGE antibodies were detected with the use of peroxidase-conjugated goat, anti-mouse IgG (H+L) (IgG) (Pierce, Rockford, Ill.) followed by incubation with the substrate TMB (BioFX Laboratories Owings Mills, Md. Laboratories). Absorbance values were determined at 450 nm in a spectrophotometer. The concentrations of monoclonal antibodies were determined with the use of peroxidase-labeled goat, anti-mouse IgG (Fcγ) (Pierce Rockford, Ill.) and a standard curve was generated by a purified, isotype-matched mouse IgG.

[3] = target: T3, cynomolgus monkey RAGE (cynomolgus monkey (Macaca fascicularis), UniProt Q15109 23-404 (human entry)); experiment: cell-based ELISA, 293 cells transfected with cynomolgus monkey RAGE
T3 construct: On transfected 293 cells or endogenous in monkey lung sections; also called 293-cyno monkey RAGE; RAGE in monkey lung
T3 chain: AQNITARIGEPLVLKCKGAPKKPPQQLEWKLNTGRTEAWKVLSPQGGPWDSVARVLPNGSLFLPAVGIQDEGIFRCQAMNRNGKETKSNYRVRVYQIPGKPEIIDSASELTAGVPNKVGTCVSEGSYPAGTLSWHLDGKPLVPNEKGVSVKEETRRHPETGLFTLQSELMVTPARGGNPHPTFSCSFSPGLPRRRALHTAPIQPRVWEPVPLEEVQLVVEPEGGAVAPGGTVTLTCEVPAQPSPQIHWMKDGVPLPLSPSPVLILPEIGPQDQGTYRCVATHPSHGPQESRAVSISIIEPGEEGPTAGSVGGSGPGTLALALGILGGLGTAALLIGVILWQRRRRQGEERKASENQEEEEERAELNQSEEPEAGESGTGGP
Procedure: (§1) Human embryonic kidney 293 cells (American Tissue Type Culture, Manassas, Va.) cells were plated at 5×10⁶ cells per 10 cm² tissue culture plate and cultured overnight at 37° C. The next day cells were transfected with RAGE expression plasmids (pAdori1-3 vector encoding mouse, human, baboon, cynomologus monkey or rabbit RAGE) using LF2000 reagent (Invitrogen, Carlsbad Calif.) at a 4:1 ratio of reagent to plasmid DNA using the manufacturers protocol. Cells were harvested 48 hrs post-transfection using trypsin, washed once with phosphate buffered saline (PBS), then suspended in growth media without serum at a concentration of 2×10⁶ cells/ml.
(§2) Primary antibodies at 1 μg/ml were serially diluted at 1:2 or 1:3 in PBS containing 1% bovine serum albumin (BSA) in a 96-well plate. RAGE-transfected 293 cells or control parental 293 cells (50 μl) at 2×10⁶ cells/ml in serum-free growth medium were added to U-bottom 96 well plate for a final concentration of 1×10⁵ cells/well. The cells were centrifuged at 1600 rpm for 2 minutes. The supernatants were gently discarded by hand with a one-time swing and the plate was patted gently to loose the cell pellet. […] The cells were centrifuged and the supernatants are transferred to a fresh plate and read at 450 nm (Soft MAX pro 4.0, Molecular Devices Corporation, Sunnyvale, Calif.).

[4] = target: T1, human RAGE-Fc fusion protein; experiment: antibody competition ELISA on hRAGE-Fc; competitor biotinylated XT-M4
[5] = target: T1, human RAGE-Fc fusion protein; experiment: ligand competition ELISA, panel Blocks hRAGE-Fc interaction with HMGB1; blocked ligand HMGB1
Procedure: Wells were washed and blocked as described above and exposed to 100 μl of pre-incubated mixtures of RAGE-Fc or TrkB-Fc (a non-specific Fc control), at 0.1 μg/ml, plus various forms of the indicated antibody preparation (dilutions of immune sera, hybridoma supernatants or purified antibodies) for 1 hour at room temperature.

[6] = target: T1, human RAGE-Fc fusion protein; experiment: ligand competition ELISA, panel Blocks hRAGE-Fc interaction with S100-A; blocked ligand S100-A
[7] = target: T4, baboon RAGE (baboon (Papio cyanocephalus), UniProt Q15109 23-404 (human entry)); experiment: cell-based ELISA, 293 cells transfected with baboon RAGE
T4 construct: On transfected 293 cells or endogenous in baboon lung sections; also called 293-baboon RAGE; RAGE in baboon lung
T4 chain: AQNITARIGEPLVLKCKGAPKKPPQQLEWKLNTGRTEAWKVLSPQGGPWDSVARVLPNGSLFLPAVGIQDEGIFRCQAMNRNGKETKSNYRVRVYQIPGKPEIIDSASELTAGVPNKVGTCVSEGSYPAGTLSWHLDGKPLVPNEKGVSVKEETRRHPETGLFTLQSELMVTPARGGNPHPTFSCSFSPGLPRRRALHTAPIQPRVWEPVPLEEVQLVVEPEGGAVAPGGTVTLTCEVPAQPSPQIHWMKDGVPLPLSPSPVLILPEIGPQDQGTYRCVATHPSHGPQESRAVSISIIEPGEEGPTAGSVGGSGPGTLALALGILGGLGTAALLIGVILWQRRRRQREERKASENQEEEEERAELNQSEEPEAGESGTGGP
Procedure: as §1, §2

[8] = target: T1, human RAGE-Fc fusion protein; experiment: ligand competition ELISA, panel Blocks hRAGE-Fc interaction with A-beta; blocked ligand amyloid beta 1-42 peptide

- IC50 (read off the curve) [1]: ~0.1 µg/mL
- EC50 [2]: 0.1 nM
- EC50 [3]: ~2.33 nM
- IC50 (read off the curve) [4]: ~0.4 µg/mL
- IC50 (read off the curve) [5]: ~0.1 µg/mL
- IC50 (read off the curve) [6]: ~0.07 µg/mL
- EC50 [7]: ~1.33 nM
- IC50 (read off the curve) [8]: ~0.2 µg/mL
B1: XT-M4 (antibody, rat IgG2b, V domains shown)
VH: EVQLVESGGGLVQPGRSLKLSCVVSGFTFNNYWMTWIRQTPGKGLEWVASINNSGDNTYYPDSVKDRFTISRDNAKSTLYLQMNSLRSEDTATYYCTRGGDITTGFDYWGQGVMVTVSS
VL: DIQMTQSPSSMSVSLGDTITITCRASQDVGIYVNWFQQKPGKSPRRMIYRATNLADGVPSRFSGSRSGSIYSLTISSLESEDVADYHCLEFDEHPLTFGSGTKVEIK
notes: also called 1mRAGEP3/10; rat XT-M4

From patent US20070286858A1 (Pfizer, published 2007)
